Experimental data from paper PMC4132270, “Compartmentalized self-replication under fast PCR cycling conditions yields Taq DNA polymerase mutants with increased DNA-binding affinity and blood resistance”.

Columns and labels:
[1] = target: Taq DNA polymerase (wild type) (Thermus aquaticus, UniProt P19821 1-832); assay: EMSA; 50 mM KCl (enzyme's KCl optimum); 0.25 nM hairpin, 0.5-1000 nM enzyme, 1x Taq buffer (50 mM KCl for wild type, 95 mM KCl for mutants; full composition and pH not stated for this assay), 37 C, 30; details: protein: recombinant, tags: none (His tag removed, pET11), label: 5' 33P, recessed 3' end, 5' overhang
Taq E507K = Taq E507K (Thermus aquaticus, UniProt P19821 1-832, E507K); assay: EMSA; 95 mM KCl; 0.25 nM hairpin, 0.5-1000 nM enzyme, 1x Taq buffer (50 mM KCl for wild type, 95 mM KCl for mutants; full composition and pH not stated for this assay), 37 C, 30; details: protein: recombinant, label: 5' 33P, recessed 3' end, 5' overhang
Taq G59W = Taq G59W (Thermus aquaticus, UniProt P19821 1-832, G59W); assay: EMSA; 95 mM KCl (Methods: all assays with Taq mutants); text gives 91 nM; 0.25 nM hairpin, 0.5-1000 nM enzyme, 1x Taq buffer (50 mM KCl for wild type, 95 mM KCl for mutants; full composition and pH not stated for this assay), 37 C, 30; details: protein: recombinant, label: 5' 33P, recessed 3' end, 5' overhang

B1: hairpin primer-template (structured_DNA)
DNA: CTCCAGACACGACGCAGTTGCCCGATGGTCGACGTTCGCGAAAGCGAACGTCGACCATCGGGCAACT
modifications: 3' end blocked with dideoxy TMP (3' ddT; unclear whether the printed 3' T is the ddT or it is added)
Kd [1]: 102 nM
Kd (Taq E507K): 1.1 nM
Kd (Taq G59W): 91.6 nM
